{"source": "paper PMC6826779", "about": "“Bis-allylic Deuterated DHA Alleviates Oxidative Stress in Retinal Epithelial Cells” (Antioxidants, 2019)", "key": {"[1]": {"substrate": "CCC=CCC=CCC=CCC=CCC=CCC=CCCC(=O)O", "assay": "Kinetics parameters of 15s-LOX (UV 270 nm, Michaelis-Menten)", "assay_type": "biochemical, Glycine max (soybean)", "details": "other: 15s-LOX, substrate 0.02-0.2 mM, borate buffer pH 9, 20 °C", "method": "(§1) The activity of 15-sLOX was monitored on a Beckman Coulter DU730 Life Sciences UV-visible spectrometer at a wavelength of 270 nm monitoring the conjugated triene structure in the dihydroxylation products. For the measurements a reaction mixture of DHA or deuterated DHA (0.02 mM; 0.04 mM; 0.1 mM and 0.2 mM) was prepared in 750 µL sodium borate buffer (50 mM, pH 9) by ultrasonification for 10 s. The reaction was subsequently initiated by the addition of 10 µL 15-sLOX (4 mg/mL) to make a total volume of 760 µL in a Hellma CEL2056 quartz cuvette with 1 cm path length (20 °C). The initial reaction rates (V(0)), derived from the recorded UV-absorbance using the law of Lambert-Beer (molar extinction coefficient = 40,000), were plotted against the respective DHA concentrations and fitted to Michaelis-Menten kinetics in GraphPad Prism 7.0. All V(0) values were determined in triplicate and the average of three independent experiments was plotted against the substrate concentrations to yield Michaelis-Menten kinetics."}, "[2]": {"substrate": "CC/C=C\\C/C=C\\C/C=C\\C/C=C\\C/C=C\\C/C=C\\CCC(=O)O", "assay": "Kinetics parameters of 15s-LOX (UV 270 nm, Michaelis-Menten)", "assay_type": "biochemical, Glycine max (soybean)", "details": "other: 15s-LOX, substrate 0.02-0.2 mM, borate buffer pH 9, 20 °C", "method": "as §1"}}, "data": [{"protein": "15-sLOX (Glycine max) (protein) MFSAGHKIKGTVVLMPKNELEVNPDGSAVDNLNAFLGRSVSLQLISATKADAHGKGKVGKDTFLEGINTSLPTLGAGESAFNIHFEWDGSMGIPGAFYIKNYMQVEFFLKSLTLEAISNQGTIRFVCNSWVYNTKLYKSVRIFFANHTYVPSETPAPLVSYREEELKSLRGNGTGERKEYDRIYDYDVYNDLGNPDKSEKLARPVLGGSSTFPYPRRGRTGRGPTVTDPNTEKQGEVFYVPRDENLGHLKSKDALEIGTKSLSQIVQPAFESAFDLKSTPIEFHSFQDVHDLYEGGIKLPRDVISTIIPLPVIKELYRTDGQHILKFPQPHVVQVSQSAWMTDEEFAREMIAGVNPCVIRGLEEFPPKSNLDPAIYGDQSSKITADSLDLDGYTMDEALGSRRLFMLDYHDIFMPYVRQINQLNSAKTYATRTILFLREDGTLKPVAIELSLPHSAGDLSAAVSQVVLPAKEGVESTIWLLAKAYVIVNDSCYHQLMSHWLNTHAAMEPFVIATHRHLSVLHPIYKLLTPHYRNNMNINALARQSLINANGIIETTFLPSKYSVEMSSAVYKNWVFTDQALPADLIKRGVAIKDPSTPHGVRLLIEDYPYAADGLEIWAAIKTWVQEYVPLYYARDDDVKNDSELQHWWKEAVEKGHGDLKDKPWWPKLQTLEDLVEVCLIIIWIASALHAAVNFGQYPYGGLIMNRPTASRRLLPEKGTPEYEEMINNHEKAYLRTITSKLPTLISLSVIEILSTHASDEVYLGQRDNPHWTSDSKALQAFQKFGNKLKEIEEKLVRRNNDPSLQGNRLGPVQLPYTLLYPSSEEGLTFRGIPNSISI", "values": [{"measurement": "Km", "setting": "[1]", "result": 57.4, "unit": "µM"}, {"measurement": "Km", "setting": "[2]; substrate D2-DHA", "result": 36.3, "unit": "µM"}, {"measurement": "Km", "setting": "[2]; substrate Natural DHA", "result": 68, "unit": "µM"}]}]}
